Measured values taken from US20220096654A1, “PYRROLOBENZODIAZEPINE-ANTIBODY CONJUGATES AND USES THEREOF” (ADC THERAPEUTICS SA, priority 2020, published 2022).

Assays:
human CD45+ OCIM1 cells = experiment: Complement dependent cytotoxicity (51Cr release) assay; assay type: cell-based; conditions: 10 ug/ml antibody, 10% baby rabbit serum
Experimental: 1×10^6 human CD45+ OCIM1 cells in 100 uL of complete medium (RPMI 1640 plus 10% fetal calf serum) were radiolabelled with 100 μCi ^51Cr sodium chromate for 1 h at 37° C. followed by three washes with complete medium. Labelled cells were incubated at 5×10^4/mL in triplicate wells of a 96 well plate in presence of YTH24.5 alone, YTH54.12 alone or with both antibodies for 10 mins at room temperature before of addition of baby rabbit serum at a final concentration of 10%. A final concentration of 5% Triton X-100 was added to control wells of cells to determined maximum lysis. 50 uL of supernatant from each well was transferred into a white-walled plates containing 150 uL scintillation liquid in each well. Plates were read in a MicroBeta counter (Trilux) after overnight incubation. The percentage of specific lysis was calculated using the standard formula [(experimental−spontaneous release)/(maximum load-spontaneous release)×100] and expressed as the mean of triplicate samples.

CD34+ PBSC (CD45+) = experiment: Clonogenic assay, CD34+ PBSC treated 2 h with Mab or ADC; assay type: cell-based, human; conditions: MAbs in human IgG1-AAA or rat IgG2b format; Isotype control and Isotype control PBD rat IgG2b format only
Experimental: Cryopreserved purified CD34+ cells from mobilized peripheral blood from three normal donors were thawed and cultured at […] complete medium (RPMI 1640 plus 10% fetal calf serum) in presence of Mab, ADC or medium alone for 2 hours in 96-well U-bottom plates. Cells were mixed and 40 uL was transferred to 2 ml of StemMACS HSC-CFU complete with Epo (Miltenyi Biotech) and mixed well. 0.5 ml (250 cells) was plated into triplicate into wells of a 24-well plate. Colonies were enumerated between 10-14 days. Data is mean of three donors±s.d.

human CD34+ cells = experiment: Ex vivo treatment of CD34+ cells with Mab or ADC prior to engraftment in NSG mice; conditions: CD34+ cells treated at 1 nM and 0.1 nM for 4 hours before transplantation; week 8
Experimental: Adult female NSG mice were sublethally irradiated with 2.5 Gy on the day before transplantation. Cryopreserved purified CD34+ cells from mobilized peripheral blood from a normal donor were thawed and cultured in complete medium (RPMI 1640 plus 10% fetal calf serum) in presence of Mab, ADC or medium alone for 4 hours. Cells were washed in phosphate buffered saline (PBS) and 0.5×10^6 cells in PBS were injected intravenously into the tail vein of mice. Engraftment of transplanted human cells (hCD45+) in the bone marrow of mice was determined by flow cytometry at 8 weeks after transplantation.

[1] = Dosimetry in non-humanised NSG mice; assay type: in vivo; conditions: 5 mg/kg i.v., non-humanised NSG mice, monitored 2 weeks
Experimental: For dosimetry in non-humanised NSG mice, adult NSG mice were injected intravenously via the tail vein with unconjugated Mab or ADC up to 5 mg/kg. Mice regularly monitored over a period of 2 weeks for any signs of morbidity. Mice were culled if rapid weight loss (>15%) occurred over a period of 2 days.

human CD45+ cells [2] = experiment: Depletion of human CD45+ cells in humanised NSG mice; assay type: in vivo
Experimental: Adult female NSG mice were sublethally irradiated with 2.5 Gy on the day before transplantation (day −57). Cryopreserved purified CD34+ cells from mobilized peripheral blood from a normal donor were thawed and 0.5×10^6 cells in PBS were injected intravenously into the tail vein of mice (day −56). Human engraftment (human CD45+ cells) in the blood of mice was assessed at day −14 and day −1. Mice were assigned to treatment cohorts so that the median human CD45+ engraftment in the blood between the cohorts was as similar as possible. Mice were injected with 0.3 mg/kg or 1 mg/kg Mab or ADC intravenously via the tail vein. Blood samples were taken after 7 days and analysed by flow cytometry. The bone marrow, blood and spleen of mice were analysed at two weeks post-treatment.

[3] = system: luciferase expressing human CD45+ Jurkat cells; experiment: Jurkat leukaemia model in NSG mice (bioluminescence, survival); assay type: in vivo; conditions: 1 mg/kg, day 16
Experimental: Adult NSG mice were sublethally irradiated with 2 Gy on the day before injection of cells. 5×10^6 fire fly luciferase expressing Jurkat cells in PBS were injected intravenously into the tail vein of mice. On the following day PBS, MAbs or ADC were injected intravenously into the tail vein at a dose of 1 mg/kg. Mice were regularly monitored for signs of morbidity and weight loss for the duration of the experiment. For imaging, mice were injected intraperitoneally with 3 mg D-luciferin in PBS. Mice were initially anesthetized with 4% isoflurane and then maintained at 2% isoflurane. Ten minutes after injection of D-luciferin, mice were imaged inside a IVIS Lumina III (PerkinElmer). A sub-saturating image was captured using the auto-exposure setting in the Living Image software.

target cells = experiment: Live-imaging microscopy of antibody internalisation; assay type: cell-based; conditions: live-imaging microscopy (data not shown)
Excerpt: In particular, the lysosomal pathway can be important in providing an environment for cleavage of the antibody-drug linkers, hereby releasing the drug in the target cells for highly specific cell killing.

Nalm6 (CD45-) = experiment: Cell viability assay 5 days (PrestoBlue), Nalm6; assay type: cell-based, human; conditions: rat IgG2b ADC, n=3
Experimental: (§1) OCIM1, Jurkat and Nalm6 cells were seeded at a final concentration of 1.275×10^4/mL and for 5 days in presence of rat IgG2b Mab or ADC or medium (in triplicate) in wells of flat bottom 96-well plates. 293T cells were seeded at 9.3×10^3 cells per 100 uL per well in flat bottom 96-well plates and allowed to adhere the plate for up to 24 hours. 293T cells were subsequently cultured with rat IgG2b Mabs or ADC or medium (in triplicate wells) as described above. PrestoBlue® Cell viability Reagent (Thermo Fisher Scientific) was added to each and incubated for up to 1.5 hours. Fluorescence intensity from each well was detected using a FLUOstar OPTIMA microplate reader (BMG Labtech). Data was plotted using Prism 8.0 and sigmoid dose-response non-linear regression was used to determine EC50 values. Data points are mean±s.d. for representative experiments.

293T (CD45-) = experiment: Cell viability assay 5 days (PrestoBlue), 293T; assay type: cell-based, human; conditions: rat IgG2b ADC, n=3
Experimental: as §1

fLuc+ OCIM1 cells [4] = experiment: AML model in NSG mice, treatment the day after cell injection; assay type: in vivo; conditions: 1 mg/kg or 5 mg/kg i.v. the day after OCIM1 injection
Experimental: (§2) NSG mice were transplanted with 7.5×10^6 luciferase expressing fLuc+ OCIM1 cells i.v. On the following day, unconjugated rat IgG2b antibodies or ADCs were injected i.v. via a tail vein at a dose of 1 mg/kg or 5 mg/kg. Mice were regularly monitored for signs of morbidity for the duration of the experiment. For imaging, mice were injected intraperitoneally with 200 μl of 15 mg/mL D-luciferin (Regis Technologies) in PBS. Mice were subsequently anesthetized with 4% isoflurane and maintained at 2% isoflurane. Ten minutes after injection of D-luciferin, mice were placed with anterior side up inside a IVIS Lumina III (PerkinElmer). A sub-saturating image was captured using the auto-exposure setting in the Living Image software (v4.5). Quantification and preparation of images was also carried out using the same software.

fLuc+ OCIM1 cells [5] = experiment: Established AML model in NSG mice, treatment 10 days post-injection; assay type: in vivo
Experimental: as §2, with “7.5×10^6” for “7.5×10^6 luciferase expressing”, “At 10 days post-injection of AML cells,” for “On the following day,”, “antibody” for “rat IgG2b antibodies”

human CD45+ cells [6] = experiment: Allogeneic stem cell transplant model in humanized NSG mice, comparison of payloads; assay type: in vivo; conditions: 5 mg/kg
Experimental: Adult NSG mice (Charles River Laboratories) were sublethally irradiated with 2.5 Gy in a ^137Cs irradiator. On the following day, mice were injected with 0.5×10^6 freshly thawed cryopreserved human CD34+ cells from a health donor were injected via the tail vein in 150 μL PBS using a 29 gauge MicroFine Plus insulin syringe (BD). Engraftment of human cells in the blood was assessed periodically from 6 weeks after transplantation. At 10 weeks post-transplant, humanized NSG mice were assigned into cohorts with similar median human CD45+ cell engraftment in the blood, as determined by flow cytometry. Mice were injected with PBS or 1 mg/kg YTH24.5-B1. Sixteen 16 days after treatment, mice were transplanted with 0.5×10^6 GFP+CD34+ cells from another healthy donor. Irradiated NSG […] were also transplanted with the GFP+CD34+ from the allogeneic healthy donor as a control for engraftment of the GFP+CD34+ cells. 8 weeks after transplantation of GFP+ cells, mice were culled and blood, spleen and bone marrow taken for analysis by flow cytometry.
Experimental schedule is as previously described in example 16 but with the following modifications. Humanized NSG mice at 10 weeks post-transplant were injected with PBS or 1 mg/kg YTH24.5-B1, YTH54.12-B1, Isotype-B1, YTH24.5-B4 and Isotype-3376. Isotype-B2 and YTH24.5-B2 was given at a dose of 5 mg/kg. Transplantation of 0.5×10^6 GFP+CD34+ from an allogeneic human donor and analysis at 8 weeks post-transplant of GFP+ cells was carried out as previously described.

B1: YTH24.5 (antibody)
heavy: QVNLLQSGAALVKPGASVKLSCKASSYTFTDYYIHWVKQSHGKTLEWIGYINPKSGFTNYNEKFRRKATLTVDKSTNTAYMDISRLTSEDSATYYCTRRTGVIPMDAWGQGASVTVSSAQTTAPSVYPLAPGCGDTTSSTVTLGCLVKGYFPEPVTVTWNSGALSSDVHTFPAVLQSGLYTLTSSVTSSTWPSQTVTCNVAHPASSTKVDKKVERRNGGIGHKCPTCPTCHKCPVPELLGGPSVFIFPPKPKDILLISQNAKVTCVVVDVSEEEPDVQFSWFVNNVEVHTAQTQPREEQYNSTFRVVSALPIQHQDWMSGKEFKCKVNNKALPSPIEKTISKPKGLVRKPQVYVMGPPTEQLTEQTVSLTCLTSGFLPNDIGVEWTSNGHIEKNYKNTEPVMDSDGSFFMYSKLNVERSRWDSRAPFVCSVVHEGLHNHHVEKSISRPPGK
light: DVVMTQTPVSLSVSLGGQVSISCRSSQSFVSSDGNTYLNWYLQKPGQSPQLLIYKVSNRLSGVPDRFSGSGSGTDFTLKISRVEHDDLGVYYCGQASKIPLTFGSGTKLEIKRADAAPTVSIFPPSMEQLTSGGATVVCFVNNFYPRDISVKWKIDGSEQRDGVLDSVTDQDSKDSTYSMSSTLSLTKVEYERHNLYTCEVVHKTSSSPVVKSFNRNEC
With B1 the “lytic activity on OCIM1 cells” value (human CD45+ OCIM1 cells) was “showed lytic activity”, the “inhibition of colony formation” value (CD34+ PBSC (CD45+)) was “do not inhibit colony formation” and the “engraftment of human CD45+ cells in the bone marrow of NSG mice” value (human CD34+ cells) was “prevented engraftment”. For the same molecule, the “Comment (survival / culling)” value [1] was “All alive at day 14”, the “Mean % hCD45 levels in blood, 1 week post-treatment” value (human CD45+ cells [2]; 0.3 mg/kg i.v.) was 3.53% and the “Mean % hCD45 levels in blood, 2 weeks Post-treatment” value (human CD45+ cells [2]; 0.3 mg/kg i.v.) was 4.72%. The “Mean % hCD45 levels in blood, 1 week post-treatment” value (human CD45+ cells [2]; 1 mg/kg i.v.) was 0.82%, the “Mean % hCD45 levels in blood, 2 weeks Post-treatment” value (human CD45+ cells [2]; 1 mg/kg i.v.) was 3.92% and the “course of the levels of human CD45+ cells in blood” value (human CD45+ cells [2]; 1 mg/kg, two week period) was “transient reduction”. For the same molecule, the “Mean % hCD45 levels in blood, Pre-treatment” value (human CD45+ cells [2]; group later dosed 0.3 mg/kg) was 5.55%, the “Mean % hCD45 levels in blood, Pre-treatment” value (human CD45+ cells [2]; group later dosed 1 mg/kg) was 5.47% and the “bioluminescent signal of naked antibody group relative to the corresponding ADC group” value [3] was 100 fold. The internalisation (target cells) was “substantially internalised via a lysosomal pathway”.

B2: YTH24.5-B2: rat IgG2b anti-CD45 antibody YTH24.5 conjugated to PBD drug-linker B2 (drawing 44) (conjugate)
heavy: QVNLLQSGAALVKPGASVKLSCKASSYTFTDYYIHWVKQSHGKTLEWIGYINPKSGFTNYNEKFRRKATLTVDKSTNTAYMDISRLTSEDSATYYCTRRTGVIPMDAWGQGASVTVSSAQTTAPSVYPLAPGCGDTTSSTVTLGCLVKGYFPEPVTVTWNSGALSSDVHTFPAVLQSGLYTLTSSVTSSTWPSQTVTCNVAHPASSTKVDKKVERRNGGIGHKCPTCPTCHKCPVPELLGGPSVFIFPPKPKDILLISQNAKVTCVVVDVSEEEPDVQFSWFVNNVEVHTAQTQPREEQYNSTFRVVSALPIQHQDWMSGKEFKCKVNNKALPSPIEKTISKPKGLVRKPQVYVMGPPTEQLTEQTVSLTCLTSGFLPNDIGVEWTSNGHIEKNYKNTEPVMDSDGSFFMYSKLNVERSRWDSRAPFVCSVVHEGLHNHHVEKSISRPPGK
light: DVVMTQTPVSLSVSLGGQVSISCRSSQSFVSSDGNTYLNWYLQKPGQSPQLLIYKVSNRLSGVPDRFSGSGSGTDFTLKISRVEHDDLGVYYCGQASKIPLTFGSGTKLEIKRADAAPTVSIFPPSMEQLTSGGATVVCFVNNFYPRDISVKWKIDGSEQRDGVLDSVTDQDSKDSTYSMSSTLSLTKVEYERHNLYTCEVVHKTSSSPVVKSFNRNEC
With B2 the EC50 (Nalm6 (CD45-)) was 0.0301 nM, the EC50 (293T (CD45-)) was greater than 6 nM and the “tumor (bioluminescence) signal” value (fLuc+ OCIM1 cells [4]) was “Low/absent tumor signal”. For the same molecule, the “period of tumor regression / low tumor signal” value (fLuc+ OCIM1 cells [5]) was “shortest period of tumor regression”, the “time within which tumor signal increased again” value (fLuc+ OCIM1 cells [5]) was no more than 10 days and the “mice alive at 60 days” value (fLuc+ OCIM1 cells [5]; cohorts of 5 mice, all tumor-bearing) was 1/5. For the same molecule, the “percentage GFP+ human CD34+ cells in the bone marrow (mean)” value (human CD45+ cells [6]) was 72.14% and the “mean % hCD45+ engraftment in the bone marrow” value (human CD45+ cells [6]; 8 weeks after allogeneic GFP+ cells, PBS 14.12%) was 1.089%.
